OD without mAb and OD with mAb data for one substance are collected here from patent publication US20100034812A1.

Assay [1] concerns the target recombinant birch pollen allergen Bet v 1 (Betula verrucosa) (UniProt P15494). In words: ELISA, IgE of non-allergic control serum on rBet v 1. (In general: An ELISA detects its analyte on a solid surface through an enzyme-linked reagent.)
Assay [2] shares this target. Described as above. This is another data set of the same source.
The target is the same in assay [3]. In words: ELISA, IgE of control serum on rBet v 1 after clone 2.
Assay [4] shares this target. In words: ELISA, IgE of control serum on rBet v 1 after clone 4.
Assay [5] has the same target. In words: ELISA, IgE of control serum on rBet v 1 after clone 2. This is another data set of the same source.
Assay [6] shares this target. In words: ELISA, IgE of control serum on rBet v 1 after clone 4. This is another data set of the same source.
Assay [7] has the same target. In words: ELISA, IgE of control serum on rBet v 1 after clone 10.
The target is the same in assay [8]. In words: ELISA, IgE of control serum on rBet v 1 after clone 12.
Assay [9] has the same target. In words: ELISA, IgE of control serum on rBet v 1 after clone 13.
Assay [10] shares this target. In words: ELISA, IgE of control serum on rBet v 1 after clone 10. The source holds these as a separate data set.
Assay [11] shares this target. In words: ELISA, IgE of control serum on rBet v 1 after clone 12. The source holds these as a separate data set.
For assay [12] the target is unchanged. In words: ELISA, IgE of control serum on rBet v 1 after clone 13. This is another data set of the same source.

Where two headings read alike, the source gives them in different places.

Sequence of UniProt P15494 (P15494 2-160 limits assumed): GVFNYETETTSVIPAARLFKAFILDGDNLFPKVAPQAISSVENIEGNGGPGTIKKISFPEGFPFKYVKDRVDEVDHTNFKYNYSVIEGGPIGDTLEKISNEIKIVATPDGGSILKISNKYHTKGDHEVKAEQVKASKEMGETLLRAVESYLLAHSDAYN

For “serum from a non-allergic person (antibody)”, the OD without mAb worked out at 0.06 OD in assay [1] and 0.03 OD in assay [2]. Further, the OD with mAb stood at 0.09 OD in assay [3]; 0.09 OD in assay [4]; 0.03 OD in assay [5]; 0.04 OD in [6]; 0.09 OD in assay [7]; 0.14 OD in [8]. For the same substance, the OD with mAb came out at 0.15 OD in assay [9], 0.03 OD in [10], 0.04 OD in assay [11] and 0.08 OD in [12].
